These results are taken from the supplement of paper PMC9428881.

The data set in a line: background-corrected fluorescence of 3'-dye-labeled ssDNA relative to brightest sequence (3'-GCGCG) (fraction); higher = brighter dye fluorescence (less quenching). In outline: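 Arrays of single-stranded DNA, with a 3' Cy3 or Cy5 dye beside each of 1024 permuted pentamers, were built on glass slides through light-directed phosphoramidite synthesis. They were washed for 2 h at r.t. in acetonitrile and scanned at 532 or 635 nm, once before and once after overnight ethylenediamine/ethanol deprotection. Fluorescence is reported after subtracting unlabeled-oligo background and normalizing to the brightest sequence. Averages cover 10 features per array and at least 3 syntheses.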

± gives the standard error.

As for “TTTTTTGCTGAGCATGCTGCTTTTTTTTTTTTTTTACTAA [AATCA]”, the background-corrected fluorescence is, setting by setting: (dye: Cy3 (3' terminal)) 0.522 ± 0.0087; (dye: Cy5 (3' terminal)) 0.413 ± 0.021.
Regarding “TTTTTGCAGCATGAGCATGCTTTTTTTTTTTTTTTTTCTA [ATCTT]”, the background-corrected fluorescence runs as follows: (dye: Cy3 (3' terminal)) 0.467 ± 0.02; (dye: Cy5 (3' terminal)) 0.404 ± 0.036.
The corresponding values for “TTTTTTGCTGATGAGCAGCATTTTTTTTTTTTTTTACCTT [TTCCA]” are 0.463 ± 0.018 and 0.351 ± 0.018.
The corresponding values for “TTTTTTGCTGCTGAGCATCATTTTTTTTTTTTTTTAACTG [GTCAA]” are 0.547 ± 0.024 and 0.381 ± 0.029.
Regarding “TTTTTTGATGAGCATGATGCTTTTTTTTTTTTTTTCCTCA [ACTCC]”, the background-corrected fluorescence reads like this: (dye: Cy3 (3' terminal)) 0.493 ± 0.0056; (dye: Cy5 (3' terminal)) 0.377 ± 0.042.
The corresponding values for “TTTTTTGATGATGATCAGCATTTTTTTTTTTTTTTCCCGT [TGCCC]” are 0.585 ± 0.034 and 0.48 ± 0.021.
“TTTTTTGCTGCTGATCATGCTTTTTTTTTTTTTTTAACGA [AGCAA]” registered a background-corrected fluorescence (dye: Cy3 (3' terminal)) of 0.613 ± 0.0098 and a background-corrected fluorescence (dye: Cy5 (3' terminal)) of 0.519 ± 0.07.
In the same order, the values of “TTTTTTCAGCATGATCATCATTTTTTTTTTTTTTTGTCGG [GGCTG]” are 0.666 ± 0.025 and 0.506 ± 0.027.
As for “TTTTTTGATGCGCAGCATGATTTTTTTTTTTTTTTCATTC [CTTAC]”, the background-corrected fluorescence is, setting by setting: (dye: Cy3 (3' terminal)) 0.398 ± 0.017; (dye: Cy5 (3' terminal)) 0.297 ± 0.021.
“TTTTTTGCGCATGCGCATGCTTTTTTTTTTTTTTTATATA” displayed a background-corrected fluorescence (dye: Cy3 (3' terminal)) of 0.537 ± 0.034 and a background-corrected fluorescence (dye: Cy5 (3' terminal)) of 0.431 ± 0.042.
In the same order, the values of “TTTTTTCATGAGCATGATGATTTTTTTTTTTTTTTGCTCC [CCTCG]” are 0.396 ± 0.022 and 0.286 ± 0.021.
Turning to “TTTTTTCATGCTGCTGATCATTTTTTTTTTTTTTTGAACG [GCAAG]”, the background-corrected fluorescence was 0.541 ± 0.028 (dye: Cy3 (3' terminal)) and 0.404 ± 0.023 (dye: Cy5 (3' terminal)).
In the same order, the values of “TTTTTTGATCATGATGCGCATTTTTTTTTTTTTTTCGCAT [TACGC]” are 0.517 ± 0.0084 and 0.395 ± 0.021.
In the same order, the values of “TTTTTTGATGCTCATGATGATTTTTTTTTTTTTTTCAGCC [CCGAC]” are 0.462 ± 0.011 and 0.321 ± 0.042.
The corresponding values for “TTTTTTGCTGATGATCATGATTTTTTTTTTTTTTTACCGC [CGCCA]” are 0.592 ± 0.014 and 0.406 ± 0.026.
For “TTTTTTGCTGCGCAGCAGCATTTTTTTTTTTTTTTAATTT”, the background-corrected fluorescence by setting is: (dye: Cy3 (3' terminal)) 0.559 ± 0.029; (dye: Cy5 (3' terminal)) 0.39 ± 0.025.
The corresponding values for “TTTTTTCATCATCATGATGCTTTTTTTTTTTTTTTGGGCA [ACGGG]” are 0.565 ± 0.022 and 0.505 ± 0.024.
In the same order, the values of “TTTTTTCAGCATCATCAGCATTTTTTTTTTTTTTTGTGGT [TGGTG]” are 0.659 ± 0.02 and 0.544 ± 0.031.
With “TTTTTGCATCATCATCAGCATTTTTTTTTTTTTTTTGGGT”, the background-corrected fluorescence runs as follows: (dye: Cy3 (3' terminal)) 0.686 ± 0.028; (dye: Cy5 (3' terminal)) 0.586 ± 0.044.
In the same order, the values of “TTTTTTGCTGCTGCTCATGCTTTTTTTTTTTTTTTAAAGA [AGAAA]” are 0.693 ± 0.03 and 0.568 ± 0.03.
The corresponding values for “TTTTTGCATGCTGATGATCATTTTTTTTTTTTTTTTACCG [GCCAT]” are 0.55 ± 0.026 and 0.439 ± 0.027.
In the same order, the values of “TTTTTTCAGCATGATGATGCTTTTTTTTTTTTTTTGTCCA [ACCTG]” are 0.484 ± 0.021 and 0.366 ± 0.023.
On to “TTTTTTGATCATGATGCTCATTTTTTTTTTTTTTTCGCAG [GACGC]”, for which the background-corrected fluorescence stood at 0.595 ± 0.025 (dye: Cy3 (3' terminal)) and 0.446 ± 0.029 (dye: Cy5 (3' terminal)).
In the same order, the values of “TTTTTTGCGCATGAGCATGCTTTTTTTTTTTTTTTATCTA” are 0.482 ± 0.029 and 0.368 ± 0.025.
In the same order, the values of “TTTTTTGCTCATGCTCATCATTTTTTTTTTTTTTTAGAGG [GGAGA]” are 0.645 ± 0.037 and 0.525 ± 0.055.
The corresponding values for “TTTTTTGATGATGATGATGCTTTTTTTTTTTTTTTCCCCA [ACCCC]” are 0.423 ± 0.023 and 0.352 ± 0.021.
For the sequence “TTTTTTGATCATGATGATGCTTTTTTTTTTTTTTTCGCCA [ACCGC]”, the background-corrected fluorescence (dye: Cy3 (3' terminal)) amounted to 0.49 ± 0.03 and the background-corrected fluorescence (dye: Cy5 (3' terminal)) came out at 0.423 ± 0.051.
The corresponding values for “TTTTTTGATCAGCATGATCATTTTTTTTTTTTTTTCGTCG [GCTGC]” are 0.609 ± 0.03 and 0.463 ± 0.024.
In the same order, the values of “TTTTTGCATGAGCATGCTGCTTTTTTTTTTTTTTTTCTAA [AATCT]” are 0.539 ± 0.023 and 0.454 ± 0.047.
